From patent US8377889B2, “Adiponectin receptor fragments and methods of use” (Siemens Healthcare Diagnostics Inc., priority 2007, dated 2013)
Entries after “also recorded” stand apart in the source; their conditions may differ. Like-named read-outs stand apart in the source and are kept apart here. Blank lines part the entries; values can stand above or below the compound they belong to. Residues, ends and D or L forms follow the SMILES beside them.

Legend:
[1] = target: ADAM-17 (Homo sapiens, UniProt P78536); test: Inhibition of ADAM-17 (TACE) activity; type: biochemical; conditions: for ADAM 17 inhibition: Example 9, Table 3
Sequence of ADAM-17 (P78536 215-824, species assumed): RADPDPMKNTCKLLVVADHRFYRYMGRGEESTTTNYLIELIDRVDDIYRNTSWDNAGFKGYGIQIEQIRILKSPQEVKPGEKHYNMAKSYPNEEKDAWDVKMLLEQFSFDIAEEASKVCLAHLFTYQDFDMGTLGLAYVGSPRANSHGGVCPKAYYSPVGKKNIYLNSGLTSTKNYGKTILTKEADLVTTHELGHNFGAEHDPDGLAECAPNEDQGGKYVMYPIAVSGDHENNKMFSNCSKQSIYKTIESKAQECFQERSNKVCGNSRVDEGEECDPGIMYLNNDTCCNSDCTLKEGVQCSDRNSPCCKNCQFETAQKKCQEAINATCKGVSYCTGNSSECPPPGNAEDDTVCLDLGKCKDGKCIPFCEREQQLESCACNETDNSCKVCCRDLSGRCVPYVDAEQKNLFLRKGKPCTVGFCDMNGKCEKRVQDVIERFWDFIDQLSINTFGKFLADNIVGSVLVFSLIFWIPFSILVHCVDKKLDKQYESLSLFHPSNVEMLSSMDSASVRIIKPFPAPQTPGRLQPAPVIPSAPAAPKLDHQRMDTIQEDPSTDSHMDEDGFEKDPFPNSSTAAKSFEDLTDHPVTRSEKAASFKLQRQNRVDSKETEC
Experimental: (§1) The cleavage enzymes for ECM32 are also potential therapeutic targets. ECM32 sequence at the cleavage site was matched to Elastase (X-VV) and ADAM17 (X-VVAA) as potential enzymes (proteases) able to cleave or bind ECM32. The peptides of SEQ ID NO:1 (ECM32) and SEQ ID NO:2 (ECM30) were tested at levels of 0 mg/L, 12.5 mg/L, 25 mg/L, and 50 mg/L for their effect on cleavage enzymes.
The effect of ECM32 (SEQ ID NO:1), ECM30 (SEQ ID NO:2), ECM25 (SEQ ID NO:5), ECM10 (SEQ ID NO:6), ECM12 (SEQ ID NO:7), and ECM9 (SEQ ID NO:8) on ADAM-17 activity was evaluated.

[2] = target: T1, insulin degradation enzyme (IDE) (Homo sapiens, UniProt P14735); test: Inhibition of IDE activity; type: biochemical; conditions: Example 9, Table 3
[3] = test system: normal rats; test: Plasma insulin testing in normal rats; type: in vivo, rat
Experimental: The peptides of SEQ ID NO:1 (ECM32) and SEQ ID NO:2 (ECM30) were tested by treating normal rat groups of 6 to 8 animals at 2 mg/mL in saline intravenously and compared to an untreated control group (0.9% saline solution only). All three groups were fasted on Day 0. Fasted plasma glucose and insulin were measured on Day 1 at 0, 30, 60, 90, and 120 minutes post glucose dose (5 mL/kg). Plasma levels of ECM30 and ECM32 were also measured. Plots of the data are shown in FIG. 1 and FIG. 2, for the insulin level in ng/mL and glucose level in mg/dL, respectively, as a function of time.

[4] = test system: diabetic rats; test: Plasma insulin testing in diabetic rats; type: in vivo, rat; conditions: 2 mg/mL and 10 mg/mL in saline intravenously
Experimental: The peptide of SEQ ID NO:2 (ECM30) was tested by treating diabetic rat groups of 8 animals at 2 mg/mL and 10 mg/mL in saline intravenously and compared to a control group (bovine serum albumin in saline). All three groups were fasted on Day 0. Fasted plasma glucose and insulin were be measured on Day 1 at 0, 30, 60, 90, and 120 minutes post glucose dose. Plots of the data are shown in FIG. 3 and FIG. 4, for the insulin level and % of pre-dose glucose in ng/ml, respectively, as a function of time.

[5] = target: T1, insulin degradation enzyme (IDE); test: Inhibition of IDE activity; type: biochemical; conditions: Example 8; 0-50 μg/ml for ECM32, 0-100 μg/ml for ECM30
Experimental: The effect of ECM32 (SEQ ID NO:1) and ECM30 (SEQ ID NO:2) on IDE activity over time was evaluated at four different dose levels (0, 12.5, 25, and 50 μg/ml for ECM32 and 0, 25, 50, and 100 μg/ml for ECM30). The results are shown in FIG. 9 for ECM32 (SEQ ID NO:1) and FIG. 10 for ECM30 (SEQ ID NO:2). […]

[6] = test system: normal and diabetic rats; test: Effect on plasma glucose level in normal and diabetic rats; type: in vivo, rat; conditions: injected at 2 mg/kg
Experimental: The effect of ECM32 (SEQ ID NO:1) and ECM30 (SEQ ID NO:2) on the plasma glucose levels in normal and diabetic rats was evaluated. The peptides were injected at 2 mg/kg along with a control group. […] This could be due to ADAM-17 cleavage of ECM30 into IDE inhibitory forms in vivo.

[7] = test system: Elastase; test: Elastase inhibition; type: biochemical; conditions: Example 4; 0, 12.5, 25, 50 mg/L
Experimental: as §1

[8] = Plasma ECM32 (AdipoR1) level in normal and diabetic rats; type: in vivo; conditions: rat, 2 mg/kg, 120 min
Experimental: The effect of ECM32 (SEQ ID NO:1) on the plasma adiponectin and ECM32 levels in normal and diabetic rats was evaluated. The peptide was injected at 2 mg/kg along with a control group.

ADAM 17 inhibition ([1]; listed as ECM 25): negative
IDE inhibition [2]: inhibit IDE activity
IDE inhibition ([2]; listed as ECM 25): positive
Compound: HFYGVSNLQEFRYGLEGGCTDDTLL [ECM25, ADIPOR1 C-terminal fragment, 25 amino acids]
ADAM 17 inhibition [1]: no significant effect on ADAM-17 activity

Compound: HFYGVSNLQEFR [ECM12, ADIPOR1 fragment, 12 amino acids]
ADAM 17 inhibition [1]: no significant effect on ADAM-17 activity; also recorded: negative
IDE inhibition [2]: inhibit IDE activity; also recorded: positive

IDE activity over time [5]: no significant effect on IDE over time
inhibitory effect on ADAM-17 (% TACE control activity) ([1]; Example 4, 0, 12.5, 25, 50 mg/L): did not significantly inhibit
ADAM 17 inhibition ([1]; listed as ECM 30): negative
IDE inhibition [2]: no significant effect on IDE
IDE inhibition ([2]; listed as ECM 30): negative
Compound: HVLVVAAAFVHFYGVSNLQEFRYGLEGGCT (listed as Homo Sapiens) [ECM30, ADIPOR1 fragment, 30 amino acids, uncleaved form]
plasma insulin compared to the control group ([3]; 2 mg/mL in saline intravenously, 0-120 min post glucose dose): marked elevation in the plasma insulin
insulin peak relative to control ([3]; 30 minute time point): twice that observed for the control
plasma insulin [4]: did not increase insulin
ADAM 17 inhibition [1]: no significant effect on ADAM-17 activity
plasma glucose levels [6]: lowered glucose levels, but at longer time points
elastase inhibition [7]: Neither ECM30 nor ECM32 showed elastase inhibition

level at 2 h ([8]; Diabetic Rats (ZDF), read-out: ECM32 (AdipoR1) in Plasma, Mean ± SD): 95.1 ± 36.1 ng/mL
level at 2 h ([8]; Normal Rats (SD)): 113 ± 18.5 ng/mL
Compound: CC(C)C[C@H](NC(=O)[C@H](CC(C)C)NC(=O)[C@@H](NC(=O)[C@H](CC(=O)O)NC(=O)[C@H](CC(=O)O)NC(=O)[C@@H](NC(=O)[C@H](CS)NC(=O)CNC(=O)CNC(=O)[C@H](CCC(=O)O)NC(=O)[C@H](CC(C)C)NC(=O)CNC(=O)[C@H](Cc1ccc(O)cc1)NC(=O)[C@H](CCCNC(=N)N)NC(=O)[C@H](Cc1ccccc1)NC(=O)[C@H](CCC(=O)O)NC(=O)[C@H](CCC(N)=O)NC(=O)[C@H](CC(C)C)NC(=O)[C@H](CC(N)=O)NC(=O)[C@H](CO)NC(=O)[C@@H](NC(=O)CNC(=O)[C@H](Cc1ccc(O)cc1)NC(=O)[C@H](Cc1ccccc1)NC(=O)[C@H](Cc1c[nH]cn1)NC(=O)[C@@H](NC(=O)[C@H](Cc1ccccc1)NC(=O)[C@H](C)NC(=O)[C@H](C)NC(=O)[C@H](C)NC(=O)[C@@H](NC(=O)[C@@H](N)C(C)C)C(C)C)C(C)C)C(C)C)[C@@H](C)O)[C@@H](C)O)C(=O)O [ECM32] (H-VVAAAFVHFYGVSNLQEFRYGLEGGCTDDTLL-OH; N-terminus and C-terminus assumed)

ADAM 17 inhibition ([1]; listed as ECM 10): negative
IDE inhibition [2]: inhibit IDE activity
IDE inhibition ([2]; listed as ECM 10): positive
Compound: VVAAAFVHFY [ECM10, ADIPOR1 fragment, 10 amino acids]
ADAM 17 inhibition [1]: no significant effect on ADAM-17 activity

ADAM 17 inhibition ([1]; listed as ECM 9): negative
IDE inhibition [2]: inhibit IDE activity
IDE inhibition ([2]; listed as ECM 9): positive
Compound: SGCTDDTLL [ECM9, ADIPOR1 fragment, 9 amino acids]
ADAM 17 inhibition [1]: no significant effect on ADAM-17 activity
